Experimental data taken from patent publication US20140045754A1, “GLP-1 COMPOSITIONS” (priority 2011, published 2014).

Key:
[1] = optimisation of liraglutide:protamine molar ratios: free liraglutide and protamine in supernatant by liquid chromatography; details: pH 7,8; 0,11 molecule of protamine per molecule of liraglutide
Protocol: In each of 8 containers, 10% of the resulting suspension was transferred. Under vigorous stirring, a specific portion of a 18 mM Protamine Chloride solution was added.
The initial container received 0,10 mL of the 18 mM Protamine Chloride solution, followed by 0,2 mL to the second container; ending with addition of 0,8 mL to the final container (number 8). Water was added to each of the eight containers to achieve a total of 5,0 grams of suspension. After 1 hour storage, about 1 mL were withdrawn from each container and centrifuged for 10 minutes at high speed.

[2] = achievable concentration of protamine sulphate stock solution with NaCl; type: physicochemical; details: 21° C.
Protocol: In one embodiment, the stock solution of the polycationic compound is prepared with NaCl. […] This allows the storage and/or use of higher concentrations and lowers the volumes of polycationic compound stock solution needed. This makes much larger volume available for either the GLP-1 compound stock solution or the solution of metal salt. Thereby, it is easier to control the mixing process, involving the aqueous solution of GLP-1 compound and the stock solution of metal salt. As a result of this, the injectability of the final formulation is improved, especially after storage at elevated temperatures. For example, a 30-60 mg/mL protamine sulphate stock solution is achievable at 21° C. when adding sodium chloride corresponding to a concentration of 0,3M, and a 30-80 mg/mL protamine sulphate stock solution is achievable at 21° C. when adding sodium chloride corresponding to a concentration of 0,5M.

Row | composition stability and incorporation of protamine [1] | Compound | achievable stock solution concentration ([2]; sodium chloride 0,3M) [mg/mL] | achievable stock solution concentration ([2]; sodium chloride 0,5M) [mg/mL]
1 | good composition stability | CCCCCCCCCCCCCCCC(=O)N[C@@H](CCC(=O)NCCCC[C@H](NC(=O)[C@H](C)NC(=O)[C@H](C)NC(=O)[C@H](CCC(N)=O)NC(=O)CNC(=O)[C@H](CCC(=O)O)NC(=O)[C@H](CC(C)C)NC(=O)[C@H](Cc1ccc(O)cc1)NC(=O)[C@H](CO)NC(=O)[C@H](CO)NC(=O)[C@@H](NC(=O)[C@H](CC(=O)O)NC(=O)[C@H](CO)NC(=O)[C@@H](NC(=O)[C@H](Cc1ccccc1)NC(=O)[C@@H](NC(=O)CNC(=O)[C@H](CCC(=O)O)NC(=O)[C@H](C)NC(=O)[C@@H](N)Cc1cnc[nH]1)[C@@H](C)O)[C@@H](C)O)C(C)C)C(=O)N[C@@H](CCC(=O)O)C(=O)N[C@@H](Cc1ccccc1)C(=O)N[C@H](C(=O)N[C@@H](C)C(=O)N[C@@H](Cc1c[nH]c2ccccc12)C(=O)N[C@@H](CC(C)C)C(=O)N[C@H](C(=O)N[C@@H](CCCNC(=N)N)C(=O)NCC(=O)N[C@@H](CCCNC(=N)N)C(=O)NCC(=O)O)C(C)C)[C@@H](C)CC)C(=O)O [liraglutide, N^ε26-[(4S)-4-carboxy-4-(hexadecanoylamino)butanoyl]-[Arg^34]-GLP-1-(7-37)-peptide] |  | 
2 |  | protamine sulphate | 30 to 60 | 30 to 80
